Conditions: Hirudo medicinalis, Thermal, DSC, reversible: yes, whole UniProt chain shown

B1: Eglin C wild type, P01051 (protein)
chain: TEFGSELKSFPEVVGKTVDQAREYFTLHYPQYDVYFLPEGSPVTLDLRYNRVRVFYNPGTNVVNHVPHVG
Tm (pH 1.1, glycine-HCl 50mM): 41.1 °C
heat capacity change of unfolding (pH 1.1, glycine-HCl 50mM): 0.86 kcal/mol/K
unfolding enthalpy (calorimetric) (pH 1.1, glycine-HCl 50mM): 39 kcal/mol
Tm (pH 1.3, glycine-HCl 50mM): 41.3 °C
heat capacity change of unfolding (pH 1.3, glycine-HCl 50mM): 0.97 kcal/mol/K
unfolding enthalpy (calorimetric) (pH 1.3, glycine-HCl 50mM): 36.7 kcal/mol
Tm (pH 1.65, glycine-HCl 50mM): 46.1 °C
heat capacity change of unfolding (pH 1.65, glycine-HCl 50mM): 0.21 kcal/mol/K
unfolding enthalpy (calorimetric) (pH 1.65, glycine-HCl 50mM): 39.3 kcal/mol
Tm (pH 1.8, glycine-HCl 50mM): 47.3 °C
heat capacity change of unfolding (pH 1.8, glycine-HCl 50mM): 0.11 kcal/mol/K
unfolding enthalpy (calorimetric) (pH 1.8, glycine-HCl 50mM): 41.9 kcal/mol
Tm (pH 2, glycine 50mM): 46.9 °C
heat capacity change of unfolding (pH 2, glycine 50mM): 0.58 kcal/mol/K
unfolding enthalpy (calorimetric) (pH 2, glycine 50mM): 41.3 kcal/mol
Tm (pH 2.15, glycine 50mM): 51.1 °C
heat capacity change of unfolding (pH 2.15, glycine 50mM): 0.51 kcal/mol/K
unfolding enthalpy (calorimetric) (pH 2.15, glycine 50mM): 46.9 kcal/mol
Tm (pH 2.25, glycine 50mM): 51.1 °C
heat capacity change of unfolding (pH 2.25, glycine 50mM): 0.51 kcal/mol/K
unfolding enthalpy (calorimetric) (pH 2.25, glycine 50mM): 46.7 kcal/mol
Tm (pH 2.75, glycine 50mM): 57.6 °C
heat capacity change of unfolding (pH 2.75, glycine 50mM): 0.35 kcal/mol/K
unfolding enthalpy (calorimetric) (pH 2.75, glycine 50mM): 51 kcal/mol
Tm (pH 2.85, glycine 50mM): 59.5 °C
heat capacity change of unfolding (pH 2.85, glycine 50mM): 1.02 kcal/mol/K
unfolding enthalpy (calorimetric) (pH 2.85, glycine 50mM): 52.3 kcal/mol
Tm (pH 2.93, glycine 50mM): 63.9 °C
heat capacity change of unfolding (pH 2.93, glycine 50mM): 0.44 kcal/mol/K
unfolding enthalpy (calorimetric) (pH 2.93, glycine 50mM): 60.1 kcal/mol
Tm (pH 3, glycine 50mM): 63.3 °C
heat capacity change of unfolding (pH 3, glycine 50mM): 0.84 kcal/mol/K
unfolding enthalpy (calorimetric) (pH 3, glycine 50mM): 57.4 kcal/mol
Tm (pH 3.25, glycine 50mM): 69 °C
heat capacity change of unfolding (pH 3.25, glycine 50mM): 0.22 kcal/mol/K
unfolding enthalpy (calorimetric) (pH 3.25, glycine 50mM): 56.1 kcal/mol
Tm (pH 7, Sodium phosphate 50mM): 85.8 °C
heat capacity change of unfolding (pH 7, Sodium phosphate 50mM): 0.18 kcal/mol/K
unfolding enthalpy (calorimetric) (pH 7, Sodium phosphate 50mM): 74.8 kcal/mol
Tm (pH 7.01, Sodium phosphate 50mM): 85.3 °C
heat capacity change of unfolding (pH 7.01, Sodium phosphate 50mM): 0.17 kcal/mol/K
unfolding enthalpy (calorimetric) (pH 7.01, Sodium phosphate 50mM): 71.1 kcal/mol
Tm (pH 7.05, Sodium phosphate 50mM): 85.5 °C
heat capacity change of unfolding (pH 7.05, Sodium phosphate 50mM): 0.36 kcal/mol/K
unfolding enthalpy (calorimetric) (pH 7.05, Sodium phosphate 50mM): 65.5 kcal/mol
Tm (pH 8, Sodium phosphate 50mM): 86.5 °C
heat capacity change of unfolding (pH 8, Sodium phosphate 50mM): 0.51 kcal/mol/K
unfolding enthalpy (calorimetric) (pH 8, Sodium phosphate 50mM): 72.3 kcal/mol
Tm (pH 9.2, bicine 50mM): 86.3 °C
heat capacity change of unfolding (pH 9.2, bicine 50mM): 0.7 kcal/mol/K
unfolding enthalpy (calorimetric) (pH 9.2, bicine 50mM): 72.1 kcal/mol
Tm (pH 10.05, glycine 50mM): 86.5 °C
heat capacity change of unfolding (pH 10.05, glycine 50mM): 0.53 kcal/mol/K
unfolding enthalpy (calorimetric) (pH 10.05, glycine 50mM): 72.5 kcal/mol
Tm (pH 10.5, glycine 50mM): 87 °C
heat capacity change of unfolding (pH 10.5, glycine 50mM): 0.05 kcal/mol/K
unfolding enthalpy (calorimetric) (pH 10.5, glycine 50mM): 73.6 kcal/mol
Tm (pH 10.55, glycine 50mM): 86 °C
heat capacity change of unfolding (pH 10.55, glycine 50mM): 0.8 kcal/mol/K
unfolding enthalpy (calorimetric) (pH 10.55, glycine 50mM): 68.5 kcal/mol
